In publication PMC7556864, “The NTP generating activity of pyruvate kinase II is critical for apicoplast maintenance in Plasmodium falciparum” (eLife, 2020):

B1: PyrKII (P. falciparum pyruvate kinase II; His-PyrKII) (Plasmodium falciparum 3D7) (protein)
chain: GSGNGSGDLLFLNNININKNVERKKNILAHSEIGTVRNIDDINLLNHNKKNEISFTKCKQIATIGPASENFEQLEKLYLNGIDVFRLNFSHGLKSIKKYIINSIRILEKKYDTTIGILGDIQGPKIRIGEFEKNQINENDNNTFVELKEGDLFSFDLMNSLGNQNRVQLNYPELIKNAKAGQIILLDDGNLKMKILENNYDTSNIQNSYIKVQVLTGGKLYSKKGFCIPNMIMPIDVLSEKDIKDILFCINEEVDFLGYSFVQTEYDLIFLRNIINDYYESDFYNNIKRKDRINFDQNNLQMKTFDDENDFYIKEVNDYYNNYYLKNVQKYKQIYDVYKNQDLYINDNIQNHYNKNIVTNIGDDKNIIDEQHIHNNNNNNIDNIMKNYSNLYNINKDHNKIAIISKIEKPSAIKNIENIIKLSDGIMIARGDLGIETNLSNLPILQKKLINLCRIKYNKPVIVATQMMESMRFLPSPTRAEVTDVATALYDGSDCVMLSAETATGQYPILTVSTQNKIIKDVENDYYYYEYTQRKNDKLKMLDHKNNCCHENKDIQQINKYNHEYIQNNKYEQDIQNNISYFDKLIFSIRDISNNINLKSIILFSNEFNKIQKLSNLRTKAPIIVITENKYLARKLQLTWGIYPHLSKKQNLFNHDLFSLINYGCDVSKKEGFVNSPDEYSLVTFSKNINSANLLYLCQPCLTN
notes: residues 42-745 (predicted mature protein, apicoplast trafficking peptide removed); synthetic codon-harmonized gene; MBP-TEV-His6 fusion from E. coli BL21 Star (DE3), MBP cut by TEV, N-terminal His6 kept; 83,014 Da

Experiments:
[1] = target: T1, PyrKII (P. falciparum pyruvate kinase II; His-PyrKII) (Plasmodium falciparum, UniProt Q8IJ37); assay: LDH-coupled spectrophotometric assay, NADH oxidation at […] nm; format: biochemical; details: 3 mM ADP, PEP 0-20 mM, 10 mM MgCl2, 50 mM KCl, 26.5 mM Tris-HCl pH 7.5
T1 construct: gene PF3D7_1037100; residues 42-745 (predicted mature protein, apicoplast trafficking peptide removed); synthetic codon-harmonized gene; MBP-TEV-His6 fusion from E. coli BL21 Star (DE3), MBP cut by TEV, N-terminal His6 kept; 83,014 Da
T1 sequence (Q8IJ37 42-745): B1 chain

[2] = substrate: Nc1ncnc2c1ncn2[C@H]1C[C@H](O)[C@@H](COP(=O)(O)OP(=O)(O)O)O1; assay: purified protein; format: biochemical, Plasmodium falciparum; details: 5 mM PEP, 10 mM MgCl2, 50 mM KCl, 26.5 mM Tris-HCl pH 7.5
[3] = substrate: Nc1nc2c(ncn2[C@H]2C[C@H](O)[C@@H](CO[P@](=O)(O)OP(=O)(O)O)O2)c(=O)[nH]1; assay: purified protein; format: biochemical, Plasmodium falciparum; details: 5 mM PEP, 10 mM MgCl2, 50 mM KCl, 26.5 mM Tris-HCl pH 7.5
[4] = substrate: O=c1ccn([C@@H]2O[C@H](COP(=O)(O)OP(=O)(O)O)[C@@H](O)[C@H]2O)c(=O)[nH]1; assay: purified protein; format: biochemical, Plasmodium falciparum; details: 5 mM PEP, 10 mM MgCl2, 50 mM KCl, 26.5 mM Tris-HCl pH 7.5
[5] = substrate: Nc1ncnc2c1ncn2[C@@H]1O[C@H](COP(=O)(O)OP(=O)(O)O)[C@@H](O)[C@H]1O; assay: purified protein; format: biochemical, Plasmodium falciparum; details: 5 mM PEP, 10 mM MgCl2, 50 mM KCl, 26.5 mM Tris-HCl pH 7.5
[6] = substrate: Nc1ccn([C@@H]2O[C@H](COP(=O)(O)OP(=O)(O)O)[C@@H](O)[C@H]2O)c(=O)n1; assay: purified protein; format: biochemical, Plasmodium falciparum; details: 5 mM PEP, 10 mM MgCl2, 50 mM KCl, 26.5 mM Tris-HCl pH 7.5
[7] = substrate: Nc1ccn([C@H]2C[C@H](O)[C@@H](COP(=O)(O)OP(=O)(O)O)O2)c(=O)n1; assay: purified protein; format: biochemical, Plasmodium falciparum; details: 5 mM PEP, 10 mM MgCl2, 50 mM KCl, 26.5 mM Tris-HCl pH 7.5
[8] = substrate: Nc1nc2c(ncn2[C@@H]2O[C@H](COP(=O)(O)OP(=O)(O)O)[C@@H](O)[C@H]2O)c(=O)[nH]1; assay: purified protein; format: biochemical, Plasmodium falciparum; details: 5 mM PEP, 10 mM MgCl2, 50 mM KCl, 26.5 mM Tris-HCl pH 7.5

Molecule | Km [1] | kcat [2] [s⁻¹] | kcat/Km [2] [M⁻¹ s⁻¹] | kcat [3] [s⁻¹] | kcat/Km [3] [M⁻¹ s⁻¹] | kcat [4] [s⁻¹] | kcat/Km [4] [M⁻¹ s⁻¹] | kcat [5] [s⁻¹] | kcat/Km [5] [M⁻¹ s⁻¹] | kcat [6] [s⁻¹] | kcat/Km [6] [M⁻¹ s⁻¹] | kcat [7] [s⁻¹] | kcat/Km [7] [M⁻¹ s⁻¹] | kcat [8] [s⁻¹] | kcat/Km [8] [M⁻¹ s⁻¹]
C=C(OP(=O)(O)O)C(=O)O [PEP] | 0.64+ / - 0.05 mM | – | – | – | – | – | – | – | – | – | – | – | – | – | –
B1 | – | 6.68 ± 0.517 | 17800 | 1.5 ± 0.0833 | 5300 | 4.2 ± 0.667 | 5100 | 13.2 ± 3.1 | 53300 | 7.3 ± 1.15 | 7200 | 1.3 ± 0.05 | 2480 | 6.62 ± 0.75 | 98200
